Test results: PMC2447174, “A Cytoplasmic Domain Mutation in ClC-Kb Affects Long-Distance Communication Across the Membrane” (PLoS ONE, 2008)

Experiments:
[1] = molecular target: the molecule itself; experiment: SEC-MALS; Shodex PROTEIN KW-802.5 column, 200 mM NaCl, 20 mM Tris-Cl pH 7.5, protein at 1 mg/mL, room temperature (23°C); self-association, dimer
[2] = molecular target: the molecule itself; experiment: SEC-MALS; data not shown; 'monodispersed dimers, as observed with wild-type'; method taken from the wild-type experiment
[3] = molecular target: the molecule itself; experiment: cross-linking; spontaneous disulfide cross-linking of introduced cysteines in purified KbC in TBS7.5 (200 mM NaCl, 10 mM Tris pH 7.5, 5 mM ß-mercaptoethanol); SDS-PAGE in reducing (250 mM ß-mercaptoethanol) and oxidizing conditions

B1: ClC-Kb C-terminal domain (domain or fragment, human, UniProt P51801 538-684, looked up)
chain: RNIGSHRVRVEHFMNHSITTLAKDMPLEEVVKVVTSTDVAKYPLVESTESQILVGIVRRAQLVQALKAEPPSWAPGHQQCLQDILAAGCPTEPVTLKLSPETSLHEAHNLFELLNLHSLFVTSRGRAVGCVSWVEMKKAISNLTNPP
notes: ClC-Kb chloride channel, human, C-terminal cytoplasmic domain, amino acids 538-684; read here as KbC following MBP; MBP was removed with Factor Xa and washed away on the cation-exchange column; also called ClC-Kb cytoplasmic domain; ClC-Kb C-terminal cytoplasmic domain; source: E. coli, purified (amylose column, Factor Xa digestion, cation exchange); not shown: MBP, N-terminal, cleaved
- stoichiometry N [1]: 2

B2: ClC-Kb C-terminal domain double mutant K604C-A644C (domain or fragment, human, UniProt P51801 538-684, looked up)
chain: RNIGSHRVRVEHFMNHSITTLAKDMPLEEVVKVVTSTDVAKYPLVESTESQILVGIVRRAQLVQALCAEPPSWAPGHQQCLQDILAAGCPTEPVTLKLSPETSLHECHNLFELLNLHSLFVTSRGRAVGCVSWVEMKKAISNLTNPP
notes: ClC-Kb chloride channel, human, C-terminal cytoplasmic domain, amino acids 538-684, K604C and A644C; also called 604-644 cysteine double mutant; source: E. coli, purified (amylose column, Factor Xa digestion, cation exchange); not shown: MBP, N-terminal, cleaved
- stoichiometry N [2]: 2

B3: ClC-Kb C-terminal domain double mutant L603C-H645C (domain or fragment, human, UniProt P51801 538-684, looked up)
chain: RNIGSHRVRVEHFMNHSITTLAKDMPLEEVVKVVTSTDVAKYPLVESTESQILVGIVRRAQLVQACKAEPPSWAPGHQQCLQDILAAGCPTEPVTLKLSPETSLHEACNLFELLNLHSLFVTSRGRAVGCVSWVEMKKAISNLTNPP
notes: ClC-Kb chloride channel, human, C-terminal cytoplasmic domain, amino acids 538-684, L603C and H645C; also called 603-645 cysteine double mutant; source: E. coli, purified (amylose column, Factor Xa digestion, cation exchange); not shown: MBP, N-terminal, cleaved
- stoichiometry N [2]: 2

B4: ClC-Kb C-terminal domain with the L650C mutation (domain or fragment, human, UniProt P51801 538-684, looked up)
chain: RNIGSHRVRVEHFMNHSITTLAKDMPLEEVVKVVTSTDVAKYPLVESTESQILVGIVRRAQLVQALKAEPPSWAPGHQQCLQDILAAGCPTEPVTLKLSPETSLHEAHNLFECLNLHSLFVTSRGRAVGCVSWVEMKKAISNLTNPP
notes: ClC-Kb chloride channel, human, C-terminal cytoplasmic domain, amino acids 538-684, L650C; also called ClC-Kb-L650C; L650C mutant; source: E. coli, purified (amylose column, Factor Xa digestion, cation exchange); not shown: MBP, N-terminal, cleaved
- binding result [3]: binds
